Reference: paper PMC8012715, “Mechanism of NanR gene repression and allosteric induction of bacterial sialic acid metabolism” (Nature Communications, 2021)

Assays:
[1] = target: T1, NanR (Escherichia coli K12) (UniProt P0A8W0); experiment: EMSA; conditions: 10 nM DNA, EMSA: 10 mM MOPS pH 7.5, 50 mM KCl, 5 mM MgCl2, 10% glycerol, 30 min at room temperature, gel at 4 C, fluorescence AUC: 20 mM Tris-HCl pH 8.0, 150 mM NaCl …
T1 sequence: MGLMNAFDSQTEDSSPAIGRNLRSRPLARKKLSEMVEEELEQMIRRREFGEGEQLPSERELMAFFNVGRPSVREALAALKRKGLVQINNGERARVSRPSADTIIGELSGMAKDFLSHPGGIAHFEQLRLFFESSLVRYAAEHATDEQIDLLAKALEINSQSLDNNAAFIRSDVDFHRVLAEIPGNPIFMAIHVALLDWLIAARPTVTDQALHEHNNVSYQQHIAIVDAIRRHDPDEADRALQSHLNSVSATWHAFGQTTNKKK

[2] = target: T1, NanR (Escherichia coli K12); experiment: fluorescence-detected AUC; conditions: 80 nM DNA, EMSA: 10 mM MOPS pH 7.5, 50 mM KCl, 5 mM MgCl2, 10% glycerol, 30 min at room temperature, gel at 4 C, fluorescence AUC: 20 mM Tris-HCl pH 8.0, 150 mM NaCl …

Row | Substance | Kd ([1]; Hill n = 2.8 ± 0.3, two complexes) | Kd ([2]; 20 mM Neu5Ac, Hill n = 2.0 ± 0.6) | Kd ([2]; Hill n = 1.9 ± 0.2, no Neu5Ac) | Kd ([1]; Hill n = 2.0 ± 0.2, apparent KD)
1 | (GGTATA)2-repeat, FAM | 25 nM | – | – | –
2 | (GGTATA)3-repeat operator, FAM | – | 578 nM | 20 nM | 39 nM
